Measured values as given in patent US20250034551A1, “METHODS AND SYSTEMS FOR HIGH-THROUGHPUT BIOCHEMICAL SCREENS” (THINK BIOSCIENCE, INC., priority 2021, published 2025).

Molecular target: kinase substrate domain (MidT) fused to the omega subunit of RNA polymerase (RpoZ), no protease recognition site in the linker, P0A800
Sequence (P0A800 whole entry, looked up, the tested form may be a part): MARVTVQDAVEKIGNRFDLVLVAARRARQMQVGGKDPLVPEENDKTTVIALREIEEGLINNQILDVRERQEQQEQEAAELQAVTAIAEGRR

B1: Striatum-enriched protein-tyrosine phosphatase catalytic domain (STEP282-563) (protein)
chain: MSSGVDLGTENLYFQSMSRVLQAEELHEKALDPFLLQAEFFEIPMNFVDPKEYDIPGLVRKNRYKTILPNPHSRVCLTSPDPDDPLSSYINANYIRGYGGEEKVYIATQGPIVSTVADFWRMVWQEHTPIIVMITNIEEMNEKCTEYWPEEQVAYDGVEITVQKVIHTEDYRLRLISLKSGTEERGLKHYWFTSWPDQKTPDRAPPLLHLVREVEEAAQQEGPHCAPIIVHCSAGIGRTGCFIATSICCQQLRQEGVVDILKTTCQLRQDRGGMIQTCEQYQFVHHVMSLYEKQLSHQS
  spectinomycin resistance of E. coli with the PTP-specific B2H: did not yield functional two-hybrid systems, most likely due to low activity against the MidT substrate
